Experimental findings from doi:10.1101/699223 (bioRxiv, 2019) are described below.

Changes are numbered by the printed parent chain. Numbers in names are those of the source.

T1: human BBS2 L349W, c-Myc-tagged (human, UniProt Q9BXC9 1-721, L349W)
T1 sequence (looked up): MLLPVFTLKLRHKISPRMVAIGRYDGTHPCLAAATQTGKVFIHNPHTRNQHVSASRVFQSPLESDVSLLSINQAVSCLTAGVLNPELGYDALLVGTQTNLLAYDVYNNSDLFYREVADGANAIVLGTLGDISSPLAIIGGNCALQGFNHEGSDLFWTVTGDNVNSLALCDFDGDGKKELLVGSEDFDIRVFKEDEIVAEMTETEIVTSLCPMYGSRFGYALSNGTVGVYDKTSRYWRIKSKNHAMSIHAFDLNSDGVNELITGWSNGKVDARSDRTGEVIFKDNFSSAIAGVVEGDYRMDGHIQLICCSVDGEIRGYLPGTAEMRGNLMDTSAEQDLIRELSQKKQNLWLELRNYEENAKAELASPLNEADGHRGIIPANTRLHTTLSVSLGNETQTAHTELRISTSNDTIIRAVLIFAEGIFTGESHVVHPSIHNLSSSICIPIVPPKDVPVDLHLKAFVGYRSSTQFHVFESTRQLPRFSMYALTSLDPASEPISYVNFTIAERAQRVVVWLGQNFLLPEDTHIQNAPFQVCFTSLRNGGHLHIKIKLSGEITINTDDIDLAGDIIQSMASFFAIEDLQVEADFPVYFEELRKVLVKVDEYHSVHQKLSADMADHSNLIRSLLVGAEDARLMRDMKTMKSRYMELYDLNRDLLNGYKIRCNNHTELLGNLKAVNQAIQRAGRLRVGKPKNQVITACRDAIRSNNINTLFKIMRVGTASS

T2: human BBS2 R632P, c-Myc-tagged (human, UniProt Q9BXC9 1-721, R632P)
T2 sequence (looked up): T1 sequence (looked up) with W349L, R632P

B1: human BBS7 (Bardet-Biedl syndrome protein 7), wild type, Flag-Strep-tagged (natural protein, UniProt Q8IWZ6 1-715, looked up)
chain: MDLILNRMDYLQVGVTSQKTMKLIPASRHRATQKVVIGDHDGVVMCFGMKKGEAAAVFKTLPGPKIARLELGGVINTPQEKIFIAAASEIRGFTKRGKQFLSFETNLTESIKAMHISGSDLFLSASYIYNHYCDCKDQHYYLSGDKINDVICLPVERLSRITPVLACQDRVLRVLQGSDVMYAVEVPGPPTVLALHNGNGGDSGEDLLFGTSDGKLALIQITTSKPVRKWEIQNEKKRGGILCIDSFDIVGDGVKDLLVGRDDGMVEVYSFDNANEPVLRFDQMLSESVTSIQGGCVGKDSYDEIVVSTYSGWVTGLTTEPIHKESGPGEELKINQEMQNKISSLRNELEHLQYKVLQERENYQQSSQSSKAKSAVPSFGINDKFTLNKDDASYSLILEVQTAIDNVLIQSDVPIDLLDVDKNSAVVSFSSCDSESNDNFLLATYRCQADTTRLELKIRSIEGQYGTLQAYVTPRIQPKTCQVRQYHIKPLSLHQRTHFIDHDRPMNTLTLTGQFSFAEVHSWVVFCLPEVPEKPPAGECVTFYFQNTFLDTQLESTYRKGEGVFKSDNISTISILKDVLSKEATKRKINLNISYEINEVSVKHTLKLIHPKLEYQLLLAKKVQLIDALKELQIHEGNTNFLIPEYHCILEEADHLQEEYKKQPAHLERLYGMITDLFIDKFKFKGTNVKTKVPLLLEILDSYDQNALISFFDAA
B2: human BBS9 (Bardet-Biedl syndrome protein 9), wild type, Flag-tagged (natural protein, UniProt Q3SYG4 1-887, looked up)
chain: MSLFKARDWWSTILGDKEEFDQGCLCLANVDNSGNGQDKIIVGSFMGYLRIFSPHPAKTGDGAQAEDLLLEVDLRDPVLQVEVGKFVSGTEMLHLAVLHSRKLCVYSVSGTLGNVEHGNQCQMKLMYEHNLQRTACNMTYGSFGGVKGRDLICIQSMDGMLMVFEQESYAFGRFLPGFLLPGPLAYSSRTDSFLTVSSCQQVESYKYQVLAFATDADKRQETEQQKLGSGKRLVVDWTLNIGEQALDICIVSFNQSASSVFVLGERNFFCLKDNGQIRFMKKLDWSPSCFLPYCSVSEGTINTLIGNHNNMLHIYQDVTLKWATQLPHIPVAVRVGCLHDLKGVIVTLSDDGHLQCSYLGTDPSLFQAPNVQSRELNYDELDVEMKELQKIIKDVNKSQGVWPMTEREDDLNVSVVVSPNFDSVSQATDVEVGTDLVPSVTVKVTLQNRVILQKAKLSVYVQPPLELTCDQFTFEFMTPDLTRTVSFSVYLKRSYTPSELEGNAVVSYSRPTDRNPDGIPRVIQCKFRLPLKLICLPGQPSKTASHKITIDTNKSPVSLLSLFPGFASQSDDDQVNVMGFHFLGGARITVLASKTSQRYRIQSEQFEDLWLITNELILRLQEYFEKQGVKDFACSFSGSIPLQEYFELIDHHFELRINGEKLEELLSERAVQFRAIQRRLLARFKDKTPAPLQHLDTLLDGTYKQVIALADAVEENQGNLFQSFTRLKSATHLVILLIALWQKLSADQVAILEAAFLPLQEDTQELGWEETVDAAISHLLKTCLSKSSKEQALNLNSQLNIPKDTSQLKKHITLLCDRLSKGGRLCLSTDAAAPQTMVMPGGCTTIPESDLEERSVEQDSTELFTNHRHLTAETPRPEVSPLQGVSE
B3: human BBS2 (Bardet-Biedl syndrome protein 2), wild type, HPC4- and c-Myc-tagged (natural protein, UniProt Q9BXC9 1-721, looked up)
chain: T1 sequence (looked up) with W349L
B4: human BBS9 G141R, Flag-tagged (natural protein, UniProt Q3SYG4 1-887, looked up)
chain: B2 chain with G141R

Assay [1] deals with B3. As to the kind of experiment: pull-down.
Assay [2] concerns the target T1, human BBS2 L349W, c-Myc-tagged. The assay is described as follows: co-IP.
Assay [3] concerns the target T2, human BBS2 R632P, c-Myc-tagged. The assay is described as follows: co-IP.
Assay [4] concerns the target B2. As to the kind of experiment: negative-stain EM reconstruction + cross-linking.
Assay [5] concerns the target B3. As to the kind of experiment: co-IP.

Regarding B1, the binding result in assay [1] is “binds”. Moreover, the “decrease in binding relative to WT” value in assay [2] worked out at 30%.
Regarding B2, the “reduction in binding relative to WT” value in assay [3] worked out at 70%.
On to B3, for which the binding result in assay [4] is given as “binds”.
As to B4, the “reduction in binding relative to WT” value in assay [5] amounted to 70%.
